Data on two substances can be found in PMC13348673.

Assay [1] deals with Arp2/3 complex branch junction (sheep Arp2/3 complex bound to rabbit actin mother and daughter filaments) (sheep (endogenous in brain) | rabbit) (UniProt P68135).
Assay [2] shares this target. This is another data set of the same source.
The target is the same in assay [3]. The assay can be described thus: microfluidics debranching assay under pulling force (TIRF microscopy of single branches); ADP-Arp2/3 branch junctions exposed to various GMF concentrations; constant average force 2.8 pN; 0.15 µM actin, 200 µM ATP; affinity from the fit of the saturation curve of the debranching rate.

The substance “Mouse cortactin full length (amino acids 1–546) (from UniProt Q60598 1-546) (natural protein)” gave a stability (inverse debranching rate) of ADP-Arp2/3 complex branches at 6 pN with 20 nM cortactin against no cortactin in assay [1] of 30 fold.

In assay [2], “Recombinant N-terminal 6xHis-tagged human GMFγ (amino acids 7–140) (from UniProt O60234 7-140) (natural protein)” had a debranching rate of ADP-Arp2/3 complex branch junctions against GMF concentration (2.8 pN, 0.15 µM actin, 200 µM ATP) of 6 fold. This substance also had a Kd in assay [3] of 0.03 µM.

As a reminder, the Kd is the equilibrium constant for the complex coming apart. The low end stands for a tighter complex, the high end for a looser complex.
